Results on seven molecules are retold here after US20170101472A1 (Regeneron, published 2017).

Positions count from the first letter of the chain named. In names and notes the source's numbering stands. Where only a bound is given, the exact number is not on record here.

Experiment [1] addresses T1, human LAG3 expressed on HEK293 cells (human, UniProt P18627 23-525).
T1 construct: also called hLAG3; HEK293/hLAG3
T1 sequence: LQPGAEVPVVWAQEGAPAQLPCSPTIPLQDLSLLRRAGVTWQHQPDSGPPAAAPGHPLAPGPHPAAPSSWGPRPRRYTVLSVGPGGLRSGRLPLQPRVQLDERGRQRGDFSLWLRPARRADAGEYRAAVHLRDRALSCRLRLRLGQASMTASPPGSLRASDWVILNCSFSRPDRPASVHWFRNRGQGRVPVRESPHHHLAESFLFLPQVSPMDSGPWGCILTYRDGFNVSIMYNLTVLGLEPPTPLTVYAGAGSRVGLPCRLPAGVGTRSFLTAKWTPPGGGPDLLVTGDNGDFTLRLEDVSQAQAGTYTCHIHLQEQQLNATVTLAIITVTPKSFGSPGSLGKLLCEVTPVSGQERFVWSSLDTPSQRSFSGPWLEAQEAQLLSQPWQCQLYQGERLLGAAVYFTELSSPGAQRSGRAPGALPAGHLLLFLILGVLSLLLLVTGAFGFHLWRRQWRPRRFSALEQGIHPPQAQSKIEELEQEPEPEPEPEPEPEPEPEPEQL
As to the kind of experiment: electrochemiluminescence cell binding, HEK293-hLAG3. As to the method: (§1) To investigate the ability of a panel of anti-LAG3 monoclonal antibodies to bind cell-surface expressed LAG3, an in vitro binding assay utilizing human and monkey LAG3 expressing cell lines in an electrochemiluminescence based detection platform [Meso Scale Diagnostics, Rockville, Md.—(MSD)] was developed.
(§2) Experiments were carried out according to following procedure. Cells from the three cell lines described above were rinsed once in 1×PBS buffer without Ca²⁺/Mg²⁺ followed by 10-minute incubation at 37° C. with Enzyme Free Cell Dissociation Solution. […] Approximately 10,000 cells per well in the cell-washing buffer were seeded into the 96-well carbon electrode plates (MULTI-ARRAY high bind plate, MSD) and incubated for 1 hour at 37° C. to allow the cells to adhere. Nonspecific binding sites were blocked by 2% BSA (w/v) in PBS for 1 hour at room temperature. […] The plates were then washed to remove the unbound antibodies using an AquaMax2000 plate washer (MDS Analytical Technologies). The plate-bound antibodies were detected with a SULFO-TAG™-conjugated anti-human IgG antibody (MSD) for 1 hour at room temperature. After washes, the plates were developed with the Read Buffer (MSD) according to manufacturer's recommended procedure and the luminescent signals were recorded with a SECTOR Imager 6000 (MSD) instrument. The direct binding signals (in relative light units—RLU) were analyzed as a function of the antibody concentration and the data were fitted with a sigmoidal (four-parameter logistic) dose-response model using Graph Pad Prism™ software. The potency of each antibody was determined by calculating EC₅₀.

Experiment [2] deals with T1, human LAG3 expressed on HEK293 cells. As to the kind of experiment: electrochemiluminescence cell binding. On the procedure:
as §1, §2

The target of experiment [3] is T2, recombinant human LAG3 expressed with a C-terminal mouse IgG2a mFc tag (human).
T2 construct: Called dimeric; also called hLAG3-mFc; hLAG3 dimer
T2 chain: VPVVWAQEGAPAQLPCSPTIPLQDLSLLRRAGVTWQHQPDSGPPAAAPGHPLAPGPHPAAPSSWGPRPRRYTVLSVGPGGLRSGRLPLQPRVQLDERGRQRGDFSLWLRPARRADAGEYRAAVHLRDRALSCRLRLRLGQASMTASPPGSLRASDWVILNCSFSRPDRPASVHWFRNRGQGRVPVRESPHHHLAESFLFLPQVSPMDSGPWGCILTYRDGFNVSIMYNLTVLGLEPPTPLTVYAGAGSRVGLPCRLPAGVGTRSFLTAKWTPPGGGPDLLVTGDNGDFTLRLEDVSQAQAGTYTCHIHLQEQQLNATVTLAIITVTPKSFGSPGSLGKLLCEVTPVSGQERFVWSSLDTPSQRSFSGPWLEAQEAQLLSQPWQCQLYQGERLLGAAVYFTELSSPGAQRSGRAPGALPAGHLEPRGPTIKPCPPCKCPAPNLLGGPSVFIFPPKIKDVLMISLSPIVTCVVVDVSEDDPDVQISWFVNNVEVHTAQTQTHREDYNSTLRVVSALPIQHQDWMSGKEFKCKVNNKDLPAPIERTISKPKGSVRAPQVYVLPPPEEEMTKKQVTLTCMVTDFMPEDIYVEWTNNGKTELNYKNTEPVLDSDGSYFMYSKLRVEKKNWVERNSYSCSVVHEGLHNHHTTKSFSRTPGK
As to the kind of experiment: SPR, mAb captured, 25 C. On the procedure: (§3) The BiaCore sensor surface was derivatized with either a polyclonal rabbit anti-mouse antibody (GE, # BR-1008-38) or with a monoclonal mouse anti-human Fc antibody (GE, # BR-1008-39) to capture approximately 50-85 RUs of anti-LAG3 monoclonal antibodies, expressed with either a mouse Fc or a human Fc, respectively. […] The binding of the LAG3 reagents to captured monoclonal antibodies was monitored for 4 minutes while their dissociation from the antibodies was monitored for 8 minutes in HBST running buffer (0.01 M HEPES pH 7.4, 0.15 M NaCl, 3 mM EDTA, 0.05% v/v Surfactant P20). Experiments were performed at 25° C. and 37° C. Kinetic association (kₐ) and dissociation (kd) rate constants were determined by processing and fitting the data to a 1:1 binding model using Scrubber 2.0c curve fitting software. Binding dissociation equilibrium constants (KD) and dissociative half-lives (t_{1/2}) were then calculated from the kinetic rate constants as: KD (M)=kd/kₐ and t_{1/2} (min)=[ln2/(60*kd)].
(SPR reads the build-up and loss of mass on a sensor chip optically.)

Experiment [4] concerns the target T3, recombinant human LAG3 expressed with a C-terminal myc-myc-hexahistidine tag (human, UniProt P18627 29-450).
T3 construct: also called hLAG3-mmh; hLAG3.mmh
As to the kind of experiment: SPR, mAb captured, 25 C. On the procedure: as §3

B1: H4sH15462P (antibody, V domains shown)
VH: QVQLVQSGAEVKKPGASVKVSCKASGYTFTNYYIHWVRQAPGQGLDWMGIINPGGGNTNYAQKFLGRVTMTRDTSTTTVYMELSSLRSEDTAIYYCARENWNSYFDNWGQGTLVTVSS
VL: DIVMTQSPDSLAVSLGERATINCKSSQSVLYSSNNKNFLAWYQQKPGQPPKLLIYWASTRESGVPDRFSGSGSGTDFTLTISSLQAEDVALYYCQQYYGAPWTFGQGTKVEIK
notes: H4sH = human IgG4 Fc with 2 or more amino acid changes as disclosed in US20140243504
What is called EC50 is the concentration giving half of the maximal effect. High values mean lower potency in that assay, low ones higher potency in that assay. In general, Kd refers to the equilibrium constant for the complex coming apart. One may read the koff as the rate constant with which the complex falls apart. Broadly, the kon is the rate constant with which the complex forms. On to B1, for which the EC50 in experiment [1] turned out to be 0.853 nM. Also, the “Ratio of 100 nM antibody binding HEK293-hLAG3 to HEK293 cells” value (from here on “Ratio”) in experiment [2] was 6.8. For the same molecule, in experiment [3], the Kd was 0.814 nM, the koff amounted to 0.0019 s⁻¹, the kon was found to be 2.34e+06 M⁻¹ s⁻¹ and the t1/2 amounted to 6.1 min. Besides, in experiment [4], the Kd was found to be 6.51 nM, the koff was determined as 0.00697 s⁻¹, the kon was 1.07e+06 M⁻¹ s⁻¹ and the t1/2 came out at 1.7 min.

B2: H4H15462P (antibody, human IgG4, V domains shown)
VH: B1 VH
VL: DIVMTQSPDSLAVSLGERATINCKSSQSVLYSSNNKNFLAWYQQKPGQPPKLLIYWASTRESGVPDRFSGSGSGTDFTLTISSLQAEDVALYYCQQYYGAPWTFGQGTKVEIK
notes: H4H = human IgG4 Fc with S108P hinge mutation
The molecule B2 displayed an EC50 in experiment [1] of 6.85 nM. Also, the “Ratio” value in experiment [2] is 2.3. In experiment [3], the Kd came out at 1.01 nM, the koff stood at 0.00203 s⁻¹, the kon was 2.02e+06 M⁻¹ s⁻¹ and the t1/2 came out at 5.7 min. Besides, in experiment [4], the Kd was 5.75 nM, the koff came to 0.0054 s⁻¹, the kon worked out at 939000 M⁻¹ s⁻¹ and the t1/2 came to 2.1 min.

B3: H4sH15479P (antibody, V domains shown)
VH: QVQLQQWGAGLLNPSETLSLTCAVYGGAFSDYYWNWIRQPPGKGLEWIGEINHRGSTNYNPSLKSRVTISVDTSKNQFSLRMSSVTAADAAVYYCARGEDYDIWNGYYQEKWGQGTLVTVSS
VL: EIVLTQSPATLSLSPGERATLSCRASQSISTYLAWYQQKPGQAPRLLIYDASKRATGIPARFSGSGSGTDFTLTISSLEPEDFVVYYCHQRSNWPLTFGGGTKVEIK
With B3, the EC50 in experiment [1] is 13.4 nM. Further, the “Ratio” value in experiment [2] was 17.8. For the same molecule, in experiment [3], the Kd was not above 0.00328 nM, the koff was not above 1e-05 s⁻¹, the kon amounted to 3.05e+06 M⁻¹ s⁻¹ and the t1/2 was not below 1160 min. In experiment [4], the Kd came out at 0.0487 nM, the koff was found to be 5.98e-05 s⁻¹, the kon came to 1.23e+06 M⁻¹ s⁻¹ and the t1/2 came out at 193 min.

B4: H4H17826P2 (antibody, human IgG4, V domains shown)
VH: EVQLVESGGGLVQPGGSLRLSCAASGFTFSSYEMNWVRQAPGKGLEWVSYISSSGNTKDYAGSVKGRVTISRDNAKNLLYLQMNSLRAEDTAVYHCARDGGHYDILTGSMSYYYYALDVWGQGTTVTVSS
VL: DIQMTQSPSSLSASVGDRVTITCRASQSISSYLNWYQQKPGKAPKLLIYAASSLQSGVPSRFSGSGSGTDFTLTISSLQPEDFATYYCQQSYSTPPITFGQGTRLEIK
notes: as for B2
The molecule B4 returned a concentration for a half-maximal effect (EC50) in experiment [1] of 3.48 nM. Moreover, in experiment [2], the “Ratio” value amounted to 7. Moreover, in experiment [3], the Kd amounted to 0.817 nM, the koff was determined as 0.000564 s⁻¹, the kon was determined as 691000 M⁻¹ s⁻¹ and the t1/2 amounted to 20.5 min. Moreover, in experiment [4], the dissociation constant Kd turned out to be 10.2 nM, the koff turned out to be 0.00457 s⁻¹, the association rate constant (kon) was 450000 M⁻¹ s⁻¹ and the t1/2 was determined as 2.5 min.

B5: H4H17828P2 (antibody, human IgG4, V domains shown)
VH: EVQLVESGGGLVQPGGSLRLSCAASGFTFKTYAMSWVRQAPGRGLEWVSGISGSGSTSYYADSVKGRFTISRDNYKKTLSLQMNSLRAEDTAVYYCALDIMATVGGLFNNWGQGTLVTVSS
VL: not shown
notes: as for B2
In experiment [1], B5 came in with an EC50 of 1.2 nM. Besides, the “Ratio” value in experiment [2] was 8.7. Further, in experiment [3], the Kd worked out at 0.245 nM, the koff worked out at 0.00046 s⁻¹, the kon turned out to be 1.88e+06 M⁻¹ s⁻¹ and the t1/2 came to 25.1 min. For the same molecule, in experiment [4], the dissociation constant (Kd) is 2.31 nM, the off-rate constant (koff) turned out to be 0.00141 s⁻¹, the on-rate (kon) was 612000 M⁻¹ s⁻¹ and the t1/2 is 8.2 min.

B6: H4H17819P (antibody, human IgG4, V domains shown)
VH: EVQLVESGGGLVQPGGSLRLSCVASGFTFSLYAMTWVRQVPGKGLEWVSTISGSGGGTYYTDSVKGRFTISRDNSKNTLYLQMNSLRADDTAVFYCTKESTTGTYSYFYGMDVWGQGTTVTVSS
VL: DIQMTQSPSSLSASVGDRVTITCRASQTISSYLNWYQQKPGKAPKLLIYAASSLQSGVPSRFSGSGSGTDFTLTLSGLQPEDFATYYCQQSYSTPLTFGGGTKVEIK
notes: as for B2
For the molecule B6, the EC50 in experiment [1] was found to be 0.69 nM. Also, the “Ratio” value in experiment [2] worked out at 22.7. In experiment [3], the Kd was determined as 0.124 nM, the koff was found to be 0.00018 s⁻¹, the kon is 1.45e+06 M⁻¹ s⁻¹ and the t1/2 was 64.2 min. In experiment [4], the Kd is 0.391 nM, the koff was determined as 0.000443 s⁻¹, the on-rate (kon) was 1.13e+06 M⁻¹ s⁻¹ and the t1/2 is 26 min.

B7: H4H17823P (antibody, human IgG4, V domains shown)
VH: EVQLLESGGGLVQPGGSLRLSCAASGFTFRSYAMSWVRQAPGKGLEWVSVISGGGGRTYYTDSVKGRFTISRDNSKSMLYLQMNSLRAEDTAIYYCAKERVTGIDHYYYGVDVWGQGTTVTVSS
VL: B6 VL with T28S, A51T, G66A, T74A, L75I, G77S, S93T
notes: as for B2
On to B7, for which it took 1.5 nM to reach a half-maximal effect in experiment [1] (EC50). Moreover, in experiment [2], the “Ratio” value came to 5.3. For the same molecule, in experiment [3], the dissociation constant (Kd) amounted to 0.174 nM, the koff amounted to 0.000218 s⁻¹, the kon amounted to 1.26e+06 M⁻¹ s⁻¹ and the t1/2 turned out to be 52.9 min. Also, in experiment [4], the Kd stood at 0.429 nM, the off-rate constant (koff) was 0.000447 s⁻¹, the association rate constant (kon) worked out at 1.04e+06 M⁻¹ s⁻¹ and the t1/2 was 25.8 min.
